Source: the DeepSol protein solubility set

Experiment: soluble on expression in E. coli; label from the status in PepcDB or PDB records
In the case of “VTPSEGNAPLPELHNTVVVAAFEGWNDAGDAAGDAVAHLAASWQALPIVEIDDEAYYDYQVNRPVIRQVDGVTRELQWPAMRISHCRPPGSDRDVVLMCGVEPNMRWRTFCDELLAVIDKLNVDTVVILGALLADTPHTRPVPVSGAAYSAASARQFGLQETRYEGPTGIAGVFQSACVGAGIPAVTFWAAVPHYVSHPPNPKATIALLRRVEDVLDVEVPLADLPAQAEAWEREITETIAEDHELAEYVQTLEQHGDAAVDMNEALGNIDGDALAAEFERYLRRRRPGFGR”, the “soluble on expression in E. coli” value was “soluble”. In the case of “VTSSPFKTIKSDEIFAAAQKLMPGGVSSPVRAFKSVGGQPIVFDRVKDAYAWDVDGNRYIDYVGTWGPAICGHAHPEVIEALKVAMEKGTSFGAPCALENVLAEMVNDAVPSIEMVRFVNSGTEACMAVLRIMRAYTGRDKIIKFEGCYHGHADMFLVKAGSGVATLGLPSSPGVPKKTTANTLTTPYNDLEAVKALFAENPGEIAGVILEPIVGNSGFIVPDAGFLEGLREITLEHDALLVFDEVMTGFRIAYGGVQEKFGVTPDLTTLGKIIGGGLPVGAYGGKREIMQLVAPAGPMYQAGTLSGNPLAMTAGIKTLELLRQPGTYEYLDQITKRLSDGLLAIAQETGHAACGGQVSGMFGFFFTEGPVHNYEDAKKSDLQKFSRFHRGMLEQGIYLAPSQFEAGFTSLAHTEEDIDATLAAARTVMSAL”, the “soluble on expression in E. coli” value was “soluble”. With “VTVGDQNGMGPSSGYVTRITNDAREDDMENNMKEVSSMIGNLRNMAIDMGNEIGSQNRQVDRIQQKAESNESRIDEANKKATKLLKN” the “soluble on expression in E. coli” value was “soluble”. For “YDPYQHIEKATNRRNMVLNAMVETGDITKAEGDKYKATKIVLNDQSKDPLANKYPWYVDAVINEAVNEADITQDEIMQKGY”, the “soluble on expression in E. coli” value was “not soluble”. For “YGQYLSIRKTETLLRNELSKLTPDTVEELSSKLPENSRSLVITYMRQVLDARDTPAQVQRLLANFEIAADKDLAISKTLTK”, the “soluble on expression in E. coli” value was “not soluble”. With “YIKVPVLRLKPSEIHINLKLLKKTADYSSVSALQQTMLYLGRLLVQSGVNTLGVDAVAAFNAASIIDSYVLAPGSSLASSVTTFSAQNRGGGKYDRIPRG” the “soluble on expression in E. coli” value was “not soluble”. With “YKTPLLKALSAVGKAAVDVCRYFNPEVKKVVAYLGWEQEYFLVDEGLYAARPDLLLTGRTLMGHEASKNQQLEDHYFGAIPTRVAAFMKDLEIQALELGIPVKTRHNEVAPNQFELAPIFEECNLAVDHNMLLMSLMRKVARSHGFRLLLHEKPFKGVNGSGKHNNWSLGTDTGVLLMAPGKTAEDNLRFITFIVNTLMAVYHHNGLLKASIMSATNAHRLGANEAPPAIISSFLGKQLTQVLDHIEESGNDDLVSLAGKQGMKLDIPQIPELLIDNTDRNRTSPFAFTGNRFEFRAVGSEANCASAMIALNAAVAEQLARFKQDVDALIEKGEPKISAIIEIIRRYIKECKPVRFDGNGYSDEWKAEAAHRGLDCETSCPLIFDNYLKPASIAMFESTGVMTRKELEARNEVKWETYTKKIQIEARVLGDLAMNH” the “soluble on expression in E. coli” value was “not soluble”.
